Where “and” joins values, the source holds several entries; their conditions need not be identical. Equal entries are not always repeated.
B1: RAP (commercial; R&D, 4296-LR) (natural protein, human)
chain: YSREKNQPKPSPKRESGEEFRMEKLNQLWEKAQRLHLPPVRLAELHADLKIQERDELAWKKLKLDGLDEDGEKEARLIRNLNVILAKYGLDGKKDARQVTSNSLSGTQEDGLDDPRLEKLWHKAKTSGKFSGEELDKLWREFLHHKEKVHEYNVLLETLSRTEEIHENVISPSDLSDIKGSVLHSRHTELKEKLRSINQGLDRLRRVSHQGYSTEAEFEEPRVIDLWDLAQSANLTDKELEAFREELKHFEAKIEKHNHYQKQLEIAHEKLRHAESVGDGERVSRSREKHALLEGRTKELGYTVKKHLQDLSGRISRARHNEL
notes: RAP (LDL-receptor related protein-associated protein), commercial preparation; also called receptor-associated protein; LDL-receptor related protein-associated protein; source: bought: R&D (4296-LR)

Experiments:
Settings in all cases: both partners purified
[1] = target: B1; assay: SPR; Biacore T200; receptor fragment COEXPRESSED with RAP (RAP+; for the LRP1 clusters RAP without HTEL; RAP washed off during purification), monomer, amine-coupled to CM5 at ~250 RU; RAP (0.08–20 nM), FVIII (0.8–200 nM) or ApoE3 (0.78–200 nM) in flow, 30 ul/min, contact 180 s; HBS-P Ca2+ pH 7.4; KD from the steady-state affinity model
[2] = target: B1; assay: SPR; Biacore T200; receptor fragment expressed WITHOUT RAP (RAP−), monomer, amine-coupled to CM5 at ~250 RU; RAP (0.08–20 nM), FVIII (0.8–200 nM) or ApoE3 (0.78–200 nM) in flow, 30 ul/min, contact 180 s; HBS-P Ca2+ pH 7.4 (10 mM HEPES, 150 mM NaCl, 5 mM CaCl2, 0.005% Tween-20); KD from the steady-state affinity model
[3] = target: T1, LRP1 cluster III, recombinant, secreted from Sf9 cells (human, UniProt Q07954 2522-2940); assay: SPR; Biacore T200; receptor fragment COEXPRESSED with RAP (RAP+; for the LRP1 clusters RAP without HTEL; RAP washed off during purification), monomer, amine-coupled to CM5 at ~250 RU; RAP (0.08–20 nM), FVIII (0.8–200 nM) or ApoE3 (0.78–200 nM) in flow, 30 ul/min, contact 180 s; HBS-P Ca2+ pH 7.4; KD from the steady-state affinity model
T1 construct: also called cluster III (RAP+); cluster III (RAP−)
T1 sequence (Q07954 2522-2940): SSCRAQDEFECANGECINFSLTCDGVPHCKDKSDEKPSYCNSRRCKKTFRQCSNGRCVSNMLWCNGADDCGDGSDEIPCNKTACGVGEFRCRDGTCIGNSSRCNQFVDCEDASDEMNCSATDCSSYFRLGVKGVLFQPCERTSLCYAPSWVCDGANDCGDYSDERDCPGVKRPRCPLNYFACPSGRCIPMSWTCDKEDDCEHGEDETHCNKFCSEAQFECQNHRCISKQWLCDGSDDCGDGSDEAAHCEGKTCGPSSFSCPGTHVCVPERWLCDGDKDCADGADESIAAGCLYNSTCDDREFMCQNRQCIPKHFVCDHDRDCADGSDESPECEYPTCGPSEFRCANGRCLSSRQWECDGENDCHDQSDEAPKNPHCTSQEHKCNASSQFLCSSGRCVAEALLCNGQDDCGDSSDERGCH

[4] = target: T2, recombinant Factor VIII (Advate) (UniProt P00451 20-2351); assay: SPR; Biacore T200; LRP1 cluster II coexpressed with RAP having the HTEL signal (RAP-HTEL+), monomer, amine-coupled to CM5 at ~250 RU; RAP (0.08–20 nM) or FVIII (0.8–200 nM) in flow; HBS-P Ca2+ pH 7.4; KD from the steady-state affinity model
T2 construct: blood coagulation factor VIII, recombinant drug product Advate; also called FVIII; blood coagulation factor VIII; source: bought: Advate
T2 sequence (P00451 20-2351): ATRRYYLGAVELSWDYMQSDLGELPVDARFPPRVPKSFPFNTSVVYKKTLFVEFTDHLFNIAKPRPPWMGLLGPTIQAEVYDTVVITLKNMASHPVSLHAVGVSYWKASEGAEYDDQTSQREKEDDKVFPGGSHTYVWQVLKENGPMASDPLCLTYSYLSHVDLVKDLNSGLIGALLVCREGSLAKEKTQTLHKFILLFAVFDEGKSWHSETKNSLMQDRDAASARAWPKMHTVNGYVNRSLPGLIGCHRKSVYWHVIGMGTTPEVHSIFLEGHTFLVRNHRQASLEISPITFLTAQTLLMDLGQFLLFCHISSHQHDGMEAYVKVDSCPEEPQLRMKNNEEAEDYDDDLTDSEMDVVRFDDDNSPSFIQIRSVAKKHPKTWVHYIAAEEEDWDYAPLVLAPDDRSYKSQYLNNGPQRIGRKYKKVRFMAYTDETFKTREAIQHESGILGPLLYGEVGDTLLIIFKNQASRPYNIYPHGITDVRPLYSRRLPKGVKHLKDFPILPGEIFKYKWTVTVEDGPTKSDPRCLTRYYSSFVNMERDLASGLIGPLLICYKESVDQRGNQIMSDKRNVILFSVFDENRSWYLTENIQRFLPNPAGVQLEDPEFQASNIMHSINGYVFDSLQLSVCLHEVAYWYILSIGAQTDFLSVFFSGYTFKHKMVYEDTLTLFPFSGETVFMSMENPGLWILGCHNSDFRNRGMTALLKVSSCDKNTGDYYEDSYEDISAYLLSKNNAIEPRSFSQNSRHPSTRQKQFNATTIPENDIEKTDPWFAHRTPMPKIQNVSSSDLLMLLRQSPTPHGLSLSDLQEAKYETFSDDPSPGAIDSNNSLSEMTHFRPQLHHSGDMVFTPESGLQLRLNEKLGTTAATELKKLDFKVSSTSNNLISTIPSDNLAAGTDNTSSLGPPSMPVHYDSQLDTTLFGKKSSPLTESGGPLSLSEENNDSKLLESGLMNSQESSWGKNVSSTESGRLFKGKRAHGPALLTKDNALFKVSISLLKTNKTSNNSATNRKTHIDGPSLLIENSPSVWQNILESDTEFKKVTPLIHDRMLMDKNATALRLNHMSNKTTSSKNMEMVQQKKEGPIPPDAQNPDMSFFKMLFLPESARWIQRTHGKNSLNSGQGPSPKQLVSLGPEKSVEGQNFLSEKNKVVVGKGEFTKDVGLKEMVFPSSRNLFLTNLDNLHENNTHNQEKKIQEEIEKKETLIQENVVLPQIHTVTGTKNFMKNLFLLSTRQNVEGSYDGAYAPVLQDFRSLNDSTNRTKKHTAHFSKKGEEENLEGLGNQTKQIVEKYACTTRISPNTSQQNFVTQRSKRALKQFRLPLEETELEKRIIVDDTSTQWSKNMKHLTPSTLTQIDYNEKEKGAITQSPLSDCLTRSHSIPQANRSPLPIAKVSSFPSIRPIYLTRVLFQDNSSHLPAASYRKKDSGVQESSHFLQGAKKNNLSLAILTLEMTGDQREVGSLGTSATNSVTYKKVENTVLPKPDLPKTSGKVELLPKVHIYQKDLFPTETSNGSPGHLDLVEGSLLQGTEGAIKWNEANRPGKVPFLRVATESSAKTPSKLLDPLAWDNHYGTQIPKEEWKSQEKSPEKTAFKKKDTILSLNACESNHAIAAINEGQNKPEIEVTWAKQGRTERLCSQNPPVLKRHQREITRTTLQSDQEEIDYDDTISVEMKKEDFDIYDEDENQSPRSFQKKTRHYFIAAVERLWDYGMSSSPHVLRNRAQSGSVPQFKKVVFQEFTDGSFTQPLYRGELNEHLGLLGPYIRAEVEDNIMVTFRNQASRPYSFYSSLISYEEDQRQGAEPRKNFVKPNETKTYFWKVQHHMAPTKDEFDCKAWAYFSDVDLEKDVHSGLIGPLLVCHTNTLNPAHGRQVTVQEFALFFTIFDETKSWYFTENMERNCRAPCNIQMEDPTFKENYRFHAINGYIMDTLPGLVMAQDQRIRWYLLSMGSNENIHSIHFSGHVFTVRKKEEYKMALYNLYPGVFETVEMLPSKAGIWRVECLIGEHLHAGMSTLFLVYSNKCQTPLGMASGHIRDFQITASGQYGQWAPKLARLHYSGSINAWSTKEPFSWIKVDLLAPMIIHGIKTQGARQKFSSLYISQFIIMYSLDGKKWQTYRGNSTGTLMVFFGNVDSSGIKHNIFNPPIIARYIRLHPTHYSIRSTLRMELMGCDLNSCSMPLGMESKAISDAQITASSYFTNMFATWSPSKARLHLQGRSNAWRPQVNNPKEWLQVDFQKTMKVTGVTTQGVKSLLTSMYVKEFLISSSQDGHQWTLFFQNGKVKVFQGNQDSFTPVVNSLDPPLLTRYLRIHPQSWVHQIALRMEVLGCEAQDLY

[5] = target: T2, recombinant Factor VIII (Advate); assay: SPR; Biacore T200; receptor fragment COEXPRESSED with RAP (RAP+; for the LRP1 clusters RAP without HTEL; RAP washed off during purification), monomer, amine-coupled to CM5 at ~250 RU; RAP (0.08–20 nM), FVIII (0.8–200 nM) or ApoE3 (0.78–200 nM) in flow, 30 ul/min, contact 180 s; HBS-P Ca2+ pH 7.4; KD from the steady-state affinity model
[6] = target: T2, recombinant Factor VIII (Advate); assay: SPR; Biacore T200; receptor fragment expressed WITHOUT RAP (RAP−), monomer, amine-coupled to CM5 at ~250 RU; RAP (0.08–20 nM), FVIII (0.8–200 nM) or ApoE3 (0.78–200 nM) in flow, 30 ul/min, contact 180 s; HBS-P Ca2+ pH 7.4 (10 mM HEPES, 150 mM NaCl, 5 mM CaCl2, 0.005% Tween-20); KD from the steady-state affinity model
[7] = target: T2, recombinant Factor VIII (Advate); assay: SPR; Biacore T200; commercial LRP1 cluster Fc chimeras (R&D) amine-coupled to CM5 at ~250 RU; RAP (0.08–20 nM) or FVIII (0.8–200 nM) in flow; HBS-P Ca2+ pH 7.4; KD from the steady-state affinity model

Binder	Kd [1] [nM]	Kd [2] [nM]	further results
LRP1 CR.6–8 triplet coexpressed with RAP (RAP+) (domain or fragment, human LRP1 complement-type repeats 6–8 (cluster II); also called LRP1 CR; 6–8 (RAP+); source: Sf9, baculovirus (pFastBac-Dual), coexpressed with RAP; purified (HisTrap Excel, Superdex 75, monomer peak)) not shown	2.8	–	–
LRP1 CR.6–8 triplet expressed without RAP (RAP−) (domain or fragment, human LRP1 complement-type repeats 6–8 (cluster II); also called LRP1 CR.6–8 (RAP−); source: Sf9, baculovirus (pFastBac-Dual), expressed without RAP; purified (HisTrap Excel, Superdex 75, monomer peak)) not shown	–	2.9	–
LRP1 CR.7–8 doublet (coexpression study) (domain or fragment, human LRP1 complement-type repeats 7–8 (cluster II); also called LRP1 CR.7–8 (RAP+); LRP1 CR.7–8 (RAP−); source: Sf9, baculovirus (pFastBac-Dual), expressed without RAP or coexpressed with RAP; purified (HisTrap Excel, Superdex 75, monomer peak)) not shown	3.1	–	–
B1	–	–	Kd [3]: 2 nM
LRP1 CR.6–7 doublet (coexpression study) (domain or fragment, human LRP1 complement-type repeats 6–7 (cluster II); also called LRP1 CR; 6–7 (RAP+); LRP1 CR 6–7 (RAP−); source: Sf9, baculovirus (pFastBac-Dual), expressed without RAP or coexpressed with RAP; purified (HisTrap Excel, Superdex 75, monomer peak)) not shown	3.8	3.9	–
LRP1 cluster II (CR.3–10), recombinant, secreted from Sf9 cells (domain or fragment, also called LRP1 cluster II (8 CRs); cluster II (RAP−)) PQCQPGEFACANSRCIQERWKCDGDNDCLDNSDEAPALCHQHTCPSDRFKCENNRCIPNRWLCDGDNDCGNSEDESNATCSARTCPPNQFSCASGRCIPISWTCDLDDDCGDRSDESASCAYPTCFPLTQFTCNNGRCININWRCDNDNDCGDNSDEAGCSHSCSSTQFKCNSGRCIPEHWTCDGDNDCGDYSDETHANCTNQATRPPGGCHTDEFQCRLDGLCIPLRWRCDGDTDCMDSSDEKSCEGVTHVCDPSVKFGCKDSARCISKAWVCDGDNDCEDNSDEENCESLACRPPSHPCANNTSVCLPPDKLCDGNDDCGDGSDEGELC	–	–	Kd [4]: 37 nM; Kd [5]: 25 nM and 42 nM; Kd [6]: 244 nM and 192 nM
recombinant human LRP-1 cluster II Fc chimera protein (R&D, 2368-L2) (Fc fusion, UniProt Q07954 852-1182, looked up, human LRP1 cluster II of the bought Fc chimera; also called commercial LRP1 cluster II; source: bought: R&D (2368-L2)) PQCQPGEFACANSRCIQERWKCDGDNDCLDNSDEAPALCHQHTCPSDRFKCENNRCIPNRWLCDGDNDCGNSEDESNATCSARTCPPNQFSCASGRCIPISWTCDLDDDCGDRSDESASCAYPTCFPLTQFTCNNGRCININWRCDNDNDCGDNSDEAGCSHSCSSTQFKCNSGRCIPEHWTCDGDNDCGDYSDETHANCTNQATRPPGGCHTDEFQCRLDGLCIPLRWRCDGDTDCMDSSDEKSCEGVTHVCDPSVKFGCKDSARCISKAWVCDGDNDCEDNSDEENCESLACRPPSHPCANNTSVCLPPDKLCDGNDDCGDGSDEGELC	–	–	Kd [7]: 450 nM
LRP1 CR.7 singlet (domain or fragment, human LRP1 complement-type repeat 7 (cluster II); also called LRP1 CR.7 (RAP+); LRP1 CR.7 (RAP−); source: Sf9, baculovirus (pFastBac-Dual), expressed without RAP or coexpressed with RAP; purified (HisTrap Excel, Superdex 75, monomer peak)) not shown	34.9	43.7	–
